Broadly, the Kd is the constant that tells how readily two partners part at equilibrium. Read a high Kd as lower affinity. A word on the koff: it is the first-order rate constant of dissociation. Usually kon stands for the second-order rate constant of association. Low values mean slow association, high ones fast association.

The results in this text go back to paper PMC10967448, “ApoE Mimetic Peptide COG1410 Kills Mycobacterium smegmatis via Directly Interfering ClpC’s ATPase Activity” (Antibiotics, 2024).

Square brackets hold non-standard residues; d marks the D form. Ends that are not written are not given here. Aib = CC(C)(N)C(=O)O

Test [1] deals with T1, ClpC (M. smegmatis AAA+ unfoldase, Clp-ATPase) (M. smegmatis). Briefly: cell-based or functional assay.
Test [2] concerns the target ClpC (S437P) (M. smegmatis). The test is described as follows: cell-based or functional assay.
Test [3] has as its target T1, ClpC (M. smegmatis AAA+ unfoldase, …). The test is described as follows: SPR; Biacore 8K; ClpC or ClpC (S437P) amine-coupled on a CM5 chip at pH 4.0 (around 6500 RU); COG1410 flowed at 125 to 2000 nM (2-fold dilutions); PBS pH 7.4, 0.05% tween-20, 25 °C, 30 μL/min; 1:1 Langmuir binding model. The settings on record: both partners purified.
Test [4] has as its target T2, ClpC (S437P) (M. smegmatis).
T2 construct: also called ClpC variant; ClpC (S437P) variant; source: E. coli BL21 (DE3), pET28a, purified (IMAC on Ni Sepharose 6 FF, desalting)
The description is as above. The conditions noted are these: both partners purified.

B1: COG1410 (peptide)
chain: AS[Aib]LRKL[Aib]KRLL
modifications: not fully specified (N-terminus, C-terminus)
For the molecule B1, in test [1], the “ATPase activity of purified ClpC (64 nM) with COG1410, dose series; at 10 μM COG1410 against ClpC alone” value was about 3 fold and the “proteolytic activity on FITC-casein in the ClpCP1P2 system with 10 μM COG1410” value was 4 fold. For the same molecule, in the test with ClpC (S437P) [2], the “ATPase activity of purified ClpC (S437P) (64 nM) with 10 μM COG1410 against ClpC alone” value is about 7.4 fold and the “proteolytic activity on FITC-casein in the S437PP1P2 system with COG1410 against the control with ClpC alone” value is about 7 fold. In test [3], this molecule registered a Kd of 2030 nM, a dissociation rate constant (koff) of 0.0117 s⁻¹ and an on-rate (kon) of 5780 M⁻¹ s⁻¹. In the test with ClpC (S437P) [4], this molecule gave an equilibrium dissociation constant (Kd) of 1310 nM, a koff of 0.0119 s⁻¹ and an association rate constant (kon) of 9900 M⁻¹ s⁻¹.
